Measured values as given in paper PMC11461180, “Interaction with IP6K1 supports pyrophosphorylation of substrate proteins by the inositol pyrophosphate 5-InsP7” (Bioscience Reports, 2024).

Target: V5-tagged IP6K1 (human, UniProt Q92551-1 1-441)
Test: cell-based or functional assay

Sequence of V5-tagged IP6K1 (Q92551 whole entry): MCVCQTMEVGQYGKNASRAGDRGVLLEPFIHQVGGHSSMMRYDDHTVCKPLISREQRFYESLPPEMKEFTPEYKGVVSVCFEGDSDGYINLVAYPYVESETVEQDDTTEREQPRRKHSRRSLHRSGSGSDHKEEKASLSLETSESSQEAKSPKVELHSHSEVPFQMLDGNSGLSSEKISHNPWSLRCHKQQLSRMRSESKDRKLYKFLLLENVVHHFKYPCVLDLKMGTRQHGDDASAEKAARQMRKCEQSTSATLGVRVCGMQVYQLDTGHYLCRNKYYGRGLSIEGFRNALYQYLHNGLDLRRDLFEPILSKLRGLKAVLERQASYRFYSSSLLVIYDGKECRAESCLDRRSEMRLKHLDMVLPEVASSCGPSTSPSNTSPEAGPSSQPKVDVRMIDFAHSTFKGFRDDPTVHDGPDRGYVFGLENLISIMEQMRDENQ

B1: myc epitope-tagged AP3B1 (natural protein, human, UniProt O00203-1 1-1094, looked up)
chain: MSSNSFPYNEQSGGGEATELGQEATSTISPSGAFGLFSSDLKKNEDLKQMLESNKDSAKLDAMKRIVGMIAKGKNASELFPAVVKNVASKNIEIKKLVYVYLVRYAEEQQDLALLSISTFQRALKDPNQLIRASALRVLSSIRVPIIVPIMMLAIKEASADLSPYVRKNAAHAIQKLYSLDPEQKEMLIEVIEKLLKDKSTLVAGSVVMAFEEVCPDRIDLIHKNYRKLCNLLVDVEEWGQVVIIHMLTRYARTQFVSPWKEGDELEDNGKNFYESDDDQKEKTDKKKKPYTMDPDHRLLIRNTKPLLQSRNAAVVMAVAQLYWHISPKSEAGIISKSLVRLLRSNREVQYIVLQNIATMSIQRKGMFEPYLKSFYVRSTDPTMIKTLKLEILTNLANEANISTLLREFQTYVKSQDKQFAAATIQTIGRCATNILEVTDTCLNGLVCLLSNRDEIVVAESVVVIKKLLQMQPAQHGEIIKHMAKLLDSITVPVARASILWLIGENCERVPKIAPDVLRKMAKSFTSEDDLVKLQILNLGAKLYLTNSKQTKLLTQYILNLGKYDQNYDIRDRTRFIRQLIVPNVKSGALSKYAKKIFLAQKPAPLLESPFKDRDHFQLGTLSHTLNIKATGYLELSNWPEVAPDPSVRNVEVIELAKEWTPAGKAKQENSAKKFYSESEEEEDSSDSSSDSESESGSESGEQGESGEEGDSNEDSSEDSSSEQDSESGRESGLENKRTAKRNSKAKGKSDSEDGEKENEKSKTSDSSNDESSSIEDSSSDSESESEPESESESRRVTKEKEKKTKQDRTPLTKDVSLLDLDDFNPVSTPVALPTPALSPSLMADLEGLHLSTSSSVISVSTPAFVPTKTHVLLHRMSGKGLAAHYFFPRQPCIFGDKMVSIQITLNNTTDRKIENIHIGEKKLPIGMKMHVFNPIDSLEPEGSITVSMGIDFCDSTQTASFQLCTKDDCFNVNIQPPVGELLLPVAMSEKDFKKEQGVLTGMNETSAVIIAAPQNFTPSVIFQKVVNVANVGAVPSGQDNIHRFAAKTVHSGSLMLVTVELKEGSTAQLIINTEKTVIGSVLLRELKPVLSQG
B1 was tested, and the “back-pyrophosphorylation of myc-AP3B1 by 5[β-32P]InsP7 after immunoprecipitation from IP6K1 knockout HEK293T cells co-expressing IP6K1-V5 and HA-CK2α, with SFB-IDR-1 against without” value was about 2 fold.
